33 variants from the supplement of paper PMC7125110 can be followed below.

± gives the standard error. Fewer inactive variants are shown than the library holds.

First the molecules themselves.
B1: glmS ribozyme (parent)
chain: AUAAAAGCGCCAGAACUACAGAAAUGUAGUUGACGAGGAGGAGGUUUAUCGAAUUUUCGGCGGAUGCCUCCAAA

Common to all, as to conditions: with glucosamine-6-phosphate
In data set [1] the parent is B1. The data set is described as follows: self-cleavage kobs at 640 uM GlcN6P; higher = faster cleavage; RNA array. In outline: (§1)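 Ribozyme variants carrying barcodes were transcribed in situ on sequenced MiSeq chips by E. coli RNA polymerase and tracked at 37 °C with a hybridised Cy3 probe. They were exposed to 40 μM to 10 mM glucosamine-6-phosphate in HEPES/KCl/Mg(OAc)2 buffer. kobs came from exponential decay fits of normalised per-tile medians, and kcat and KM from weighted Michaelis–Menten fits.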

Data set [2] covers variants of B1. The data set is described as follows: self-cleavage kobs at 2500 uM GlcN6P; higher = faster cleavage; RNA array. In outline: as §1
Data set [3] covers variants of B1. In words: self-cleavage kobs at 10000 uM GlcN6P; higher = faster cleavage; RNA array. The method, boiled down:
as §1

Turning to A36G G66U, the “self-cleavage kobs at 640 uM GlcN6P” value in data set [1] was less than 1e-05 s⁻¹. In data set [2], the “self-cleavage kobs at 2500 uM GlcN6P” value is less than 1e-05 s⁻¹. For the same variant, the “self-cleavage kobs at 10000 uM GlcN6P” value in data set [3] was less than 1e-05 s⁻¹.

On to G7U G43U C67G, for which the “self-cleavage kobs at 640 uM GlcN6P” value in data set [1] is less than 1e-05 s⁻¹.

For the variant A12C G43A C61U, the “self-cleavage kobs at 640 uM GlcN6P” value in data set [1] is less than 1e-05 s⁻¹. Moreover, in data set [2], the “self-cleavage kobs at 2500 uM GlcN6P” value is less than 1e-05 s⁻¹.

As for C11A G13U U31A G32A U47G, the “self-cleavage kobs at 640 uM GlcN6P” value in data set [1] is less than 1e-05 s⁻¹.

On to C10A U46C U47A G59A, for which, in data set [1], the “self-cleavage kobs at 640 uM GlcN6P” value was less than 1e-05 s⁻¹. Besides, in data set [2], the “self-cleavage kobs at 2500 uM GlcN6P” value is less than 1e-05 s⁻¹.

As for A14C C34G A64G, the “self-cleavage kobs at 640 uM GlcN6P” value in data set [1] is less than 1e-05 s⁻¹. Further, the “self-cleavage kobs at 2500 uM GlcN6P” value in data set [2] is less than 1e-05 s⁻¹.

C8A A53G G63U: the “self-cleavage kobs at 640 uM GlcN6P” value in data set [1] is less than 1e-05 s⁻¹.

Take C34G U46A U49A: in data set [1], the “self-cleavage kobs at 640 uM GlcN6P” value is less than 1e-05 s⁻¹.

Turning to U65G A72C, the “self-cleavage kobs at 640 uM GlcN6P” value in data set [1] is 0.000308 ± 7.4e-05 s⁻¹.

For the variant C10U A39U G62A, in data set [1], the “self-cleavage kobs at 640 uM GlcN6P” value was less than 1e-05 s⁻¹.

As to A33C A42U, the “self-cleavage kobs at 640 uM GlcN6P” value in data set [1] was less than 1e-05 s⁻¹. The “self-cleavage kobs at 2500 uM GlcN6P” value in data set [2] is less than 1e-05 s⁻¹.

As to G9C G38U U45C, the “self-cleavage kobs at 640 uM GlcN6P” value in data set [1] was less than 1e-05 s⁻¹.

As for U31A G37U U47A U54C U69G, in data set [1], the “self-cleavage kobs at 640 uM GlcN6P” value came out at 5.3e-05 ± 2e-05 s⁻¹.

For G9C C10U U55A, in data set [1], the “self-cleavage kobs at 640 uM GlcN6P” value is less than 1e-05 s⁻¹. The “self-cleavage kobs at 2500 uM GlcN6P” value in data set [2] was less than 1e-05 s⁻¹.

Consider G44A C50G, for which, in data set [1], the “self-cleavage kobs at 640 uM GlcN6P” value was less than 1e-05 s⁻¹. The “self-cleavage kobs at 2500 uM GlcN6P” value in data set [2] is less than 1e-05 s⁻¹. In data set [3], the “self-cleavage kobs at 10000 uM GlcN6P” value was less than 1e-05 s⁻¹.

With A39C G51A A64G, the “self-cleavage kobs at 640 uM GlcN6P” value in data set [1] was less than 1e-05 s⁻¹.

As to U45G U69C, the “self-cleavage kobs at 640 uM GlcN6P” value in data set [1] was found to be 0.0407 ± 0.018 s⁻¹.

As to C8A A12C A33U A64G, the “self-cleavage kobs at 640 uM GlcN6P” value in data set [1] was less than 1e-05 s⁻¹. Also, the “self-cleavage kobs at 2500 uM GlcN6P” value in data set [2] was less than 1e-05 s⁻¹.

As to U45C U54G U56A, in data set [1], the “self-cleavage kobs at 640 uM GlcN6P” value is 0.000123 ± 2.3e-05 s⁻¹. Moreover, in data set [2], the “self-cleavage kobs at 2500 uM GlcN6P” value was 0.000428 ± 0.00012 s⁻¹. Besides, the “self-cleavage kobs at 10000 uM GlcN6P” value in data set [3] amounted to 0.000928 ± 0.00017 s⁻¹.

For the variant G38A U57A, the “self-cleavage kobs at 640 uM GlcN6P” value in data set [1] was less than 1e-05 s⁻¹. Further, in data set [3], the “self-cleavage kobs at 10000 uM GlcN6P” value is less than 1e-05 s⁻¹.

As for C10G G38A C58G A64C, the “self-cleavage kobs at 640 uM GlcN6P” value in data set [1] was found to be 0.000102 ± 4.5e-05 s⁻¹.

As for G38U C61A, the “self-cleavage kobs at 640 uM GlcN6P” value in data set [1] was less than 1e-05 s⁻¹.

For the variant U30G U54A C67G, the “self-cleavage kobs at 640 uM GlcN6P” value in data set [1] was found to be 0.000105 ± 2.2e-05 s⁻¹.

For G29U U55G G59U C70G, the “self-cleavage kobs at 640 uM GlcN6P” value in data set [1] came out at 0.00019 ± 4.5e-05 s⁻¹.

In the case of C8G A12G U49C, the “self-cleavage kobs at 640 uM GlcN6P” value in data set [1] was less than 1e-05 s⁻¹.

For U30A G40U U45A, the “self-cleavage kobs at 640 uM GlcN6P” value in data set [1] turned out to be 4.42e-05 ± 2.1e-05 s⁻¹. Besides, the “self-cleavage kobs at 2500 uM GlcN6P” value in data set [2] was found to be 0.000226 ± 5.7e-05 s⁻¹.

A6C C16U G38U U47C G63A: in data set [1], the “self-cleavage kobs at 640 uM GlcN6P” value was less than 1e-05 s⁻¹. Moreover, the “self-cleavage kobs at 2500 uM GlcN6P” value in data set [2] is less than 1e-05 s⁻¹.

Consider U55G G63U, for which the “self-cleavage kobs at 640 uM GlcN6P” value in data set [1] was less than 1e-05 s⁻¹. The “self-cleavage kobs at 2500 uM GlcN6P” value in data set [2] is less than 1e-05 s⁻¹.

Regarding C16A C50G G62A A64U, the “self-cleavage kobs at 640 uM GlcN6P” value in data set [1] is 6.11e-05 ± 2.7e-05 s⁻¹. The “self-cleavage kobs at 2500 uM GlcN6P” value in data set [2] turned out to be 9.04e-05 ± 3.5e-05 s⁻¹.

With G51U C70A, in data set [1], the “self-cleavage kobs at 640 uM GlcN6P” value was 5.2e-05 ± 1.5e-05 s⁻¹.

Regarding G29U U45C U55G, in data set [1], the “self-cleavage kobs at 640 uM GlcN6P” value came out at 3.35e-05 ± 1.5e-05 s⁻¹. The “self-cleavage kobs at 2500 uM GlcN6P” value in data set [2] amounted to 7.82e-05 ± 1.1e-05 s⁻¹.

As for C11U A15G G60U, in data set [1], the “self-cleavage kobs at 640 uM GlcN6P” value is less than 1e-05 s⁻¹.

Turning to C16U A53U U54G C58A, the “self-cleavage kobs at 640 uM GlcN6P” value in data set [1] came out at 3.02e-05 ± 1.5e-05 s⁻¹. For the same variant, the “self-cleavage kobs at 2500 uM GlcN6P” value in data set [2] was 3.59e-05 ± 1.1e-05 s⁻¹. In addition, in data set [3], the “self-cleavage kobs at 10000 uM GlcN6P” value was determined as 0.000172 ± 2e-05 s⁻¹.
